Data from patent US20220389113A1, “BINDING PROTEINS TO CUB DOMAIN-CONTAINING PROTEIN (CDCP1)” (COMMONWEALTH SCIENTIFIC AND INDUSTRIAL RESEARCH ORGANISATION, priority 2019, published 2022).

Key:
TKCC10 cells = assay: Survival assay with cytotoxin-conjugated antibodies, TKCC10; assay type: cell-based, human; details: TKCC10, 1 μg/ml, 12 h treatment then 72 h growth
Description: The relative number of viable cells was then measured by adding the CellTiter AQueous One Solution Reagent to each well and measuring absorbance at 490 nm as described above. […] Cells were imaged by wide-field fluorescence microscopy and the total area of confluence for each cell type was quantified by image analysis using Image J software.

[1] = tested on: TKCC05 cells and normal human pancreatic stellate cells; assay: Co-culture assay of TKCC05 cells and normal human pancreatic stellate cells; assay type: cell-based
Description: For survival assays, cells (5,000/well) were plated in 96-well plates and allowed to attach for 24 h. Cells were then treated for 24 h with 10D7 (5 μg/ml) or isotype control IgG (5 μg/ml) before addition of gemcitabine (0.02 to 500 nM) and incubation for another 72 h. In assays assessing the effect of cytotoxin-conjugated antibodies, cells were treated for 12 h with 10D7-MMAE, IgG-MMAE, 10D7 or IgG (0.0625 to 1.0 μg/ml) then washed before the media was replaced with standard growth medium for 72 h. The relative number of viable cells was then measured by adding the CellTiter AQueous One Solution Reagent to each well and measuring absorbance at 490 nm as described above. In co-culture assays, mKO2 expressing TKCC05 PDAC cells (2,000 cells/well) were co-cultured with GFP expressing normal human pancreatic stellate cells (2,000 cells/well) for 24 h in a 1:1 mixture of TKCC05 and hPSC growth medium before treatments with 10D7-MMAE, IgG-MMAE, 10D7 or IgG (0.0625 to 1.0 μg/ml), IgG or 10D7 (1 μg/ml) or PBS as above. Cells were imaged by wide-field fluorescence microscopy and the total area of confluence for each cell type was quantified by image analysis using Image J software.
The generated antibody-drug conjugate (ADC), 10D7-MMAE, has an average drug-antibody ratio (DAR) of 4.5 to 4.7, and retains the functional ability to induce phosphorylation of CDCP1 and Src (see Example 7). […]

OVMZ6 cells = assay: Colony formation assay, OVMZ6 cells; assay type: cell-based, human; details: even at the highest concentration
Description: (§1) MMAE-conjugated 10D7 and IgG1K were prepared as described (Nielsen C F, et al., (2017) Oncotarget. 8(27):44605-24.53) and drug-antibody ratio (DAR) determined by reverse phase LC/MS as reported (Basa L. et al., (2013) Methods Mol Biol. 1045:285-93.) on an ABSCIEX Triple TOF spectrometer (AB SCIEX Framingham, Mass.) coupled to a Shimadzu Nexera 1D UHPLC system (Shimadzu, Rydalmere, Australia). ADC peak identification was performed as reported with DAR determined by peak area integration (Hamblett K J, et al., (2004) Clin Cancer Res. 10(20):7063-70; Yao X, et al., (2015) Breast Cancer Res Treat. 153(1):123-33). Colony-formation assays were performed as described (Crowley L C, et al., (2016) Cold Spring Harb Protoc. 2016(8):pdb.prot087171) on cells (100,000/ml) treated with the indicated concentrations of 10D7, 10D7-MMAE, IgG or IgG-MMAE overnight before being lifted and replated in 24-well plates (200 cells/well). After a defined growth period media was removed and cells gently PBS washed before staining with 0.1% crystal violet (Sigma-Aldrich) in 2% ethanol. After 20 minutes and stained cells were scanned (700 nm) on a LiCOR System (Odyssey V3.0 software) with images analyzed using the ColonyArea ImageJ plugin to quantify colony area and intensity (Guzmán C, et al., (2014) PLoS One. 9(3):e92444.). […]

HEY cells = assay: Colony formation assay, HEY cells; assay type: cell-based, human
Description: as §1

B1: 10D7-MMAE (conjugate)
VH: EVQLQQFGAELVKPGASVKISCKASGYSFSDFNIEWLKQSHGKSLEWIGDINPNYDSTNYNQKFKGRATLTVDKSSSTAYMEVRSLTSEDTAVYYCARLGYGYAMDYWGQGTSVTVSS
VL: NIVMTQSPQSMSMSVGERVTLSCKASENVGAYVSWFQQKPDQSPKLLILAASNRYTGVPARFIGSGSATDFTLTISSVQAEDLADYHCGQSYTYPYTFGGGTKLEIKRADAAPTVS
- survival of cells (TKCC10 cells): about 50%
- response of TKCC05 cells ([1]; CDCP1 expressing cells): very sensitive
- response of normal human pancreatic stellate cells ([1]; CDCP1 non-expressing cells): unresponsive
- colony formation (OVMZ6 cells): unaffected
- half maximum dose required to block colony formation (HEY cells): approximately 0.2 μg/ml
